Test results published in publication PMC7773637, “Short-Chain Dehydrogenase NcmD Is Responsible for the C-10 Oxidation of Nocamycin F in Nocamycin Biosynthesis” (Frontiers in Microbiology, 2020).

Tested on: CC1=CC(O)C2OC1(C(C)C(C)O)OC(C(C)/C=C(C)/C=C/C(O)=C1C(=O)CNC1=O)C2C
Assay: HPLC product quantification, initial rates, Michaelis-Menten fit
Type: biochemical, Saccharothrix syringae
Details: 2 mM NAD^+, pH 8.5, 45°C, 0.2 μM NcmD

NcmD (Saccharothrix syringae) was tested, and the Km was 131 ± 13 µM and the kcat was 1.08 ± 0.083 s⁻¹.
